Measured values taken from the DeepSol protein solubility set.

Assay: soluble on expression in E. coli; label from the status in PepcDB or PDB records
With “MSLNSATHLAAHEGSARRRQALGEFVRTARARITPQMAGLPAGSRRRTPGLRREEVAQLSDISVTWYTWIEQGREVTVSPAVWARIANVLHLARAERAYLFELAECADPQQPRDEGGDAPVSLQACVDAIDAPAYALDRAWNLLASNAAMRELFDDWPLRDAQPNLLRYIFLDPAARELVVDWDQRARRVVAEFRADAGAHLDEADVVALLDELNRASPVFAHWWTRHAVVEREGGLREFQHPRSGRQNLQQITFRLATHPELKLVMLLPSEGHHHHHH” the “soluble on expression in E. coli” value was “soluble”.
In the case of “MGSDKIHHHHHHMDPRHRRGARLRHHQRDVARGGSVPARRQAHRRVARGLGEPVFVTHLVFFCGHAGTGKTTLAKRLIGPLMRATGEAFCLLDKDTLYGRYSSAAMGALTSDPNDRDSPLYLKHLRDPEYQGLLDTARENLALGIGALVVGPLSREVRDRRILDRAWLGIGPEIALTVVWVHTAEDVAHQRIVARGNPNDAYKLAHWDEYRQRRFVPTGHECDGIVMFDNTAPSDADIDALLYRIVPPAPQATMVPPLPA”, the “soluble on expression in E. coli” value was “not soluble”.
With “MGHHHRRDTERVCIRTRKIYDWVTRQVDVPLRSFSGEDLEAIFPMDHCRREGTICDFLGAQHTNPQHLTIRCFLTDADGNPIDSVVDQDALICQEITQPNGRQSVNVTLPSGETVTLQKVKALIKGHVVVQIVSPAGTVICQSKPIPFATAQTFILCAPEGTQLNCHISFFECDTSLVCTDNFAQLDVSITLCLEVQVEADVKIEVEARFCQPREELAEAVLCPTTKFPPQCPDVFPAM” the “soluble on expression in E. coli” value was “not soluble”.
In the case of “EEHTIIQAEFYLLPDKRGEFMFDFDGDEIFHVDIEKSETIWRLEEFAKFASFEAQGALANIAVDKANLDVMKERSNNTPDANVAPEVTVLSRSPVNLGEPNILICFIDKFSPPVVNVTWLRNGRPVTEGVSETVFLPRDDHLFRKFHYLTFLPSTDDFYDCEVDHWGLEEPLRKHWEFEE”, the “soluble on expression in E. coli” value was “soluble”.
With “MKLYSILVFHKNVDTSDVKLFKSECDLSSFSFFQRGSVQEFMTFTAKLLVERSGLGARSSVKENEYLVHCYVRNDGLSAVCVTDAEYQQRVAMSFLGRVLDDFTTRVPATQWPGIRSDKDCSYTGLKDLLEKWQNPREADPMTRVQEEVEETKMVMHNTIQSVLDRGEKLDDLVKKSENLSDQSKMFYTSARKMNKCCNYV” the “soluble on expression in E. coli” value was “not soluble”.
For “PDLAQKAANLTQEELAGLLYDSLYTKILPLSDDIIVYPAHGAGSACGKNMMQETVDSLGNQKRVNYALNQPGKEAFIASVIEGLLPPPAYFGGNVAMNKMGYDSIDNVMERGLSALSATDFEAIAKTSDALVLDTRAPGVFAQGFIPRSINIGLDGDFAPWVGTMIVDVKQPLLLVADPGREQEVITRLSRVGFDQVLGYLDGGFDTWNASGKEIDHVECITANEFAERFCPEESLVFDVRKESEYAAEHVEGAYSRPLAYINDWIQDIPRDRHFYLHCIGGYRSMIASSILLSRGYRNFTDIEGGFASIAQTGVPKTDYVCQSKVSKK”, the “soluble on expression in E. coli” value was “not soluble”.
In the case of “GLISDIIACPGMDYCALATARSIPVAQEIATRFEELKLEHEIGALKIKISGCINACGHHHVGHIGILGLDRAGVENYQITLGGDATETAAIGERTGPGFAYDQIVPAVERIVETYLDQRRDREESFIETYRRVGMAPFKAALYPE”, the “soluble on expression in E. coli” value was “not soluble”.
For “MGSDKIHHHHHHMKIDEFNKALDRGEISPLYYFHGDEPHLMERAVKRLMDSAVPPDFRDFNLDVFYGNECKGDEVASVAQTLPMFADRRMVLVKRAGDLSAAALEILASCVADPPPTTCLVFMGEKVDQRKKFFQEMKKKGELVECKRPYENQLGAFIREEAKGLGKRVEPAAAEMLVYLVGNNLGELSTQLEKVALYVGQRETISVEDVRGIVSDTKVESVFDLTNALGERNVVKALRSLATILRDGEAPLMLLAMIARHFRQLWRVRDLMAQKVPQQDISRLAGINPYFIKGVMAQARNFSASELKKVFEGLYATDLALKGGGAKRPTLTLEKLVMDVCGMGSR”, the “soluble on expression in E. coli” value was “not soluble”.
For “GPMATESPNSVQKIVVHLRATGGAPILKQSKFKVSGSDKFANVIDFLRRQLHSDSLFVYVNSAFSPNPDESVIDLYNNFGFDGKLVVNYACSMAWG”, the “soluble on expression in E. coli” value was “soluble”.
In the case of “MENCPLVSVIVCAYNAEQYIDESISSIINQTYENLEIIVINDGSTDLTLSHLEEISKLDKRIKIISNKYNLGFINSLNIGLGCFSGKYFARMDADDIAKPSWIEKIVTYLEKNDHITAMGSYLEIIVEKECGIIGSQYKTGDIWKNPLLHNDICEAMLFYNPIHNNTMIMRANVYREHKLIFNKDYPYAEDYKFWSEVSRLGCLANYPEALVKYRLHGNQTSSVYNHEQNETAKKIKRENITYYLNKIGIDIKVINSVSLLEIYHVDKSNKVLKSILYEMYMSLDKYTITSLLHFIKYHLELFDLKQNLKIIKKFIRKINVIF”, the “soluble on expression in E. coli” value was “not soluble”.
In the case of “SNAMSLEMFDKEIFDLTNKELERQCEGLEMIASENFTLPEVMEVMGSILTNKYAEGYPGKRYYGGCEFVDEIETLAIERCKKLFNCKFANVQPNSGSQANQGVYAALINPGDKILGMDLSHGGHLTHGAKVSSSGKMYESCFYGVELDGRIDYEKVREIAKKEKPKLIVCGASAYARVIDFAKFREIADEIGAYLFADIAHIAGLVVAGEHPSPFPYAHVVSSTTHKTLRGPRGGIIMTNDEELAKKINSAIFPGIQGGPLMHVIAAKAVGFKFNLSDEWKVYAKQVRTNAQVLANVLMDRKFKLVSDGTDNHLVLMSFLDREFSGKDADLALGNAGITANKNTVPGEIRSPFITSGLRLGTPALTARGFKEKEMEIVSNYIADILDDVNNEKLQENIKQELKKLASNFIIYERAMF”, the “soluble on expression in E. coli” value was “soluble”.
In the case of “MGSDKIHHHHHHMVTQMLEGKKVAILVETEFIPEEIAAYRQHFEELGATVHFMSRLWGNETVQFVSDVDEIGKSLQYLDVNIDFQSVDVNEYAAVIMAANYTSVRLRYFQPPPGQQISPEQTRTAPAIQFFAQAMANHKIIKGLLCHGLWLLTPMPELLRGRKVICHEVVLADIANAGAVYVPPPVNSQPNDPGNIVVDRDLVTGRAGHDVYAFIDAIAHQIASQEQRCLETQRR”, the “soluble on expression in E. coli” value was “not soluble”.
For “MSSRVANLTVIVSSKRRRVSVARFSCGKTAQLSKKQTGYYSPEIFPSTGKDCNPQPANCLKDQYVLRHCCVDDRSGKMGYSVKFLVLTRMDTETASLFHCKPCYSKMTFTIYHPLTHSFFTSCWLEHHHHHH”, the “soluble on expression in E. coli” value was “not soluble”.
In the case of “MSGNYDKNNINNFIDKNDEHDMSDILHKINNEEKKYEEIKSYSECLELLYKTHALKLGLDNPKKLNESFGHPCDKYKTIHIAGTNGKGSVCYKIYTCLKIKKFKVGLFSSPHIFSLRERIIVNDEPISEKELIHLVNEVLNKAKKLYINPSFFEIITLVAFLHFLNKKVDYAIIETGIGGRLDATNILTKPEVIVITSIGYDHLNILGDNLPIICNEKIGIFKKDANVVIGPSVAIYKNVFDKAKELNCTIHTVVPEPRGERYNEENSRIALRTLEILNISIDYFLKSIIPIKPPLRIQYLATEQIQHIKKKFSPDNLEHNVQYPLAVILDVGHNETAIDRLCTDINYFHKGQNIRICISITKPRNLSVFHPFIAQFGDTLKDIFYLPSLNERTYDFEEIVEMLNNEEEIKNEIKELILSSSKKVGKWLAHEKQGNINEEDALKLYKRGCIPLIIKNAFLECCKDNSILLVCGTFFVFDEVLNVFDIHSDMQDTIFMNEPS”, the “soluble on expression in E. coli” value was “not soluble”.
With “MMTSAFAPSEQSLVASPQDLPAVDVAIVGAGIVGLSLACALRNSGLAIALIEATPYRRENTKGQAYALHQVSRYFFEEIGVWDKLMPHVQPFEVVQLSDERFPLTVHFSPADLGTEALGYVGEHSAIAETLQSVLQSAGNVTFYCPWRVVTNEVHGDRAQLTLISGDPGEPKVAHLAARLVVAADGGKSPLRQQMGIEPKGWQYPQSCVVATLDVAHPQPVIAYERFWPTGPMGVLPLPRNRYRVVWTLPHPEAEAVAALDDRSFLATLQPYLDPQMAEITAVGDRFVFPAQFMQVNSYAADRFVVIGDAAHRCHPVGGQGLNLGLRDVWNLAQQILASPLEEIGDRRHLMHFHRQRWWQNVLTLAFTDFLNRLFSNTGWPLVAVRRCGLGLLCLLPPLKRLLLRFMAGLLLPLPGDREFPRGRLEHHHHHH” the “soluble on expression in E. coli” value was “not soluble”.
In the case of “MSLSSERVLSNARVVSAERVFVGSVLLRDGLIAAVDEGRSHLAGAEDLGGDYLLPGLVELHTDNLEKHMTPRPGVDWPSASAVLAHDAQIVSAGITTVFDALSIGDVNPKGKRMQQLPKMLEAIGEAAASGDARADHRLHLRCEVSHPQTLEVFRELVEHPLVQLVSVMDHAPGQRQFARLEKYREYYQGKYHLSDAEMDAFIVEQVANSERYSDAARAAIVDVCQGRGLSVASHDDATLAHVRESAGYGMAIAEFPTTVEAARASHEHGLQVLMGAPNVVRGGSHSGNVAAAQLAGIGVLDILSSDYYPASLLHAALLLAGEHSEYDAIRYDLPRAVAMVSRTPALAAGLTDRGEIRVGLRADLLQARALGNNQPVVRQVWRGGQRVFEGHHHHHH”, the “soluble on expression in E. coli” value was “soluble”.
With “TTSMIQISDAVGYLIRPLKIFKLPVDDIVLTLSIALRFIPTMLQEISTISDAQKARGSSLNSRSIAKKIKAIVPILMPLFIASVRRAEDLATAMIMRGYSDGKNRTKFRIMK” the “soluble on expression in E. coli” value was “not soluble”.
With “MGSDKIHHHHHHMKNLPSLKNLYYLVHLHQEQNFNRAAKMCFVSQSTLSSGIQNLEEQLGYQLIERDHKSFMFTAIGEEVVERARNILTNVDDLVELVKNQGEPMTGEIRLGCIPTIAPFLLSRVVKLCQQDYPKLSLLLKEDTTERLLDALAKGELDLLILALPVDTSGFHSMKVGIDPFKMVMHKEVSQQFLQPIDYQKMPDESIFLLQAEHCITGHAITACQLGDSAKINPFAATSLHTLVQMVNSKLGTTFLPQMAIDTGILTDTDLVAMDPPGEAPYRDIGLVWRQTTSRISTFRTLGLAIQQKLLAQSLPS” the “soluble on expression in E. coli” value was “not soluble”.
For “MGSDKIHHHHHHDKTVKENGRTLHNGIVLPEQWPPSMIDDGVRREMSLPYISNKPTVISVNLGRQLFVDDFLIAETDMERVSHKAMFYENNPVLAPDKEWEYTFERAPYAAPFSDGIWYDESEQKFKMWYLAGAGSMHKHRQSFYTCYAESKDGKHWEKVNMDIVPGTNIVDTCDRDAATVWLDKMCPEPEKRFKLFNVEKHSGGWKIILKYSKDGIHWSEGVAQSGPVGDRTTAFYNPFTQKWAISLRQGSKADGRSRGYLENEDPEMAVSVAHSLAKGIKDKNIVLWFTPSDKELPHPEFPDVRPAIYNFDAMPYESVMLGFYAMWKGPENDLCGKLGIQKRNEIGMGYSRDGFHFYRPSYEPVMGVNETEGAWNWGNMQSVIGVPLIVGDSLYLYSSGRMKNKVMWDGFTSTGLATLRRDGFVSMHTDTEGVLVTEKIKFDGNHFFVNAQAKDLQVEIMDENGNVITGFSREDCKEMNDLNSTKQLVTWKSGKKLAALSGKIVKVKFYVTCGDLYAFWISPWDTGESRGYTGGGGPGLNPCGIDIK”, the “soluble on expression in E. coli” value was “not soluble”.
For “MGGDMLPSVLKDNLRLPVIASPLFIISHPQLTLAQCKAGVIGAFPALNARPESQLDEWLAMITEELAAYNRANPERPAAPFAVNQIVHMSNRRLEHDLGLCVKYKVPVVISSLGAVPEVNAAVHSYGGIVLHDVINDRHARSAIRKGADGLIAVAAGAGGHAGTLSPFALIQEIREWFDGPLLLAGAIANGGSILAAQAMGADMAYIGSPFIATEEARASDGYKQALVDAQAKDIVYSNYFTGVHGNYLKSSIVASGMDPDNLPEADPSKMDFETATGGAKAWKDIWGAGQGIGAIKAVEPVAALVDRLAAEYEAAKGRICAKA”, the “soluble on expression in E. coli” value was “not soluble”.
In the case of “MAHHHHHHMQTHISRAVEEGRHTKEAAAYFESIMNDKPEFRLFMREAQRLIGDQDPRGLTRYQQTHYSEKLSRYMSGVASERLMRAHTEDENTRRHTHDGSPTGENYWFEAGQILASPTVPSFVKDEVLREMRGGRKEDSPAFEEPKAVAEMEADDEGFAEHLRRQRKRLLSPDDHLN”, the “soluble on expression in E. coli” value was “soluble”.
